According to patent US6514747B2 (UT-Battelle, LLC, priority 1993, dated 2003):
Where two headings read alike, the source gives them in different places.

Key:
Assay type in all cases: cell-based
[1] = tested on: L6 skeletal myocytes; experiment: [Ca2+]i in L6 skeletal myocytes (fura 2); settings: for [Ca2+]i Increase over Baseline: 400 s, n = 8
[2] = tested on: A7r5 vascular smooth muscle cells; experiment: [Ca2+]i in A7r5 vascular smooth muscle cells (fura 2); settings: 400 s, n = 8
Protocol: The spontaneously fusing L6 skeletal muscle cells [American Type Culture Collection (ATCC), Bethesda, MD] were grown in 75-cm^2 flasks in Dulbecco's modified Eagle's medium with 10% glucose (DMEM) supplemented with 5% fetal bovine serum (FBS, vol/vol), 5% calf serum supplemented iron enriched (CS, vol/vol, and antibiotics (50 U penicillin/ml and 5 μg of streptomycin/ml). Cultures were maintained in continuous passages (<20) by trypsinization (0.05% trypsin) of semiconfluent nonfused cells. A7r5 vascular smooth muscle cells (ATCC) were grown in the same conditions as for L6 cells. 3T3-L1 cells (ATCC) were grown in 100-mm dishes in DMEM containing 10% FBS and antibiotics. For differentiation of fibroblasts into adipocytes, confluent cells were incubated in DMEM-FBS containing 0.5 mM 3-isobutyl-1-methylxanthine (IBMX; Sigma, St. Louis, Mo.) and 0.25 μM dexamethasone (Dex; Sigma) for 60 h. […]
[Ca^2+]i was measured in L6, A7r5, and HEK-293 cells (Zemel et al., 1995) as previously described and in 3T3-L1 cells as described by Klip and Ramlal (1987). […] [Ca^2+]i levels were then measured fluorometrically in suspensions using dual excitation (340 and 380 nm)-single emission (510 nm) fluorometry as previously described (Zemel et al., 1995). [Ca^2+]i was then calculated by the computer in the fluorometer with the equation of Grynkiewicz et al. (1985). […]

[3] = biological target: T1, rat MC3-R (Rattus norvegicus, UniProt P32244); experiment: α-MSH activation of rat MC3-R in transfected 293 cells (adenylyl cyclase); settings: agouti 0.7 nM
T1 construct: expressed in transfected cells; host or cells: 293 cells
T1 sequence (P32244 whole entry): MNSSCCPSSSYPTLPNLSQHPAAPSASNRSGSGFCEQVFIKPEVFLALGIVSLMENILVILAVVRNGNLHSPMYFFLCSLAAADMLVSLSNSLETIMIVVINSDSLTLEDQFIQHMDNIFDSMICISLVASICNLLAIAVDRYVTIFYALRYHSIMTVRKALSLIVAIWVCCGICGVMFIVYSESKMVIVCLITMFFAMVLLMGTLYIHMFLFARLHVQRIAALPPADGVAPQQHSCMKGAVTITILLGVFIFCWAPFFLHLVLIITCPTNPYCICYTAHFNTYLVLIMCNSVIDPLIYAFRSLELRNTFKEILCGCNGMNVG

[4] = biological target: T2, mouse MC5-R (Mus musculus, UniProt P41149); experiment: α-MSH activation of mouse MC5-R in transfected 293 cells (adenylyl cyclase)
T2 construct: expressed in transfected cells; host or cells: 293 cells
T2 sequence (P41149 whole entry): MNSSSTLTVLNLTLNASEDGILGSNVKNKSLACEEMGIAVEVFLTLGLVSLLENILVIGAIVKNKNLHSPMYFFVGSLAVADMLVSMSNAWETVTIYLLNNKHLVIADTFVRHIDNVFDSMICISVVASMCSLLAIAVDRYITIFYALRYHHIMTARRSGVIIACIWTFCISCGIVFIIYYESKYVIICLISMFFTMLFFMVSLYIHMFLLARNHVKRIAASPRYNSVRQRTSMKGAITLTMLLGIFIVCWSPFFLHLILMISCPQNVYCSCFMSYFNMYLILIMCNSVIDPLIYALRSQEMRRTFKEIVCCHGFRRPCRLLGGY

B1: agouti: recombinant mouse agouti protein (131 amino acids, SEQ ID NO:2) produced with the baculovirus expression system in T. ni cells (protein, listed as Mus musculus)
chain: MDVTRLLLATLVSFLCFFTVHSHLALEETLGDDRSLRSNSSMNSLDFSSVSIVALNKKSKKISRKEAEKRKRSSKKKASMKKVARPPPPSPCVATRDSCKPPAPACCDPCASCQCRFFGSACTCRVLNPNC
[Ca2+]i Increase over Baseline ([1]; 5 nM Agouti): 49 ± 8 nM | [Ca2+]i Increase over Baseline ([1]; 25 nM Agouti): 32 ± 1 nM | [Ca2+]i response ([1]; 50 nM agouti, no channel blocker): 49 ± 8 nM | Vmax of [Ca2+]i dose-response fit ([1]; nonlinear least-squares, y=(Vmax·x)/(K+x)): 123±15.63 | EC50 ([1]; nonlinear least-squares, y=(Vmax·x)/(K+x), read-out: K of [Ca2+]i dose-response fit): 62.1 ± 19.4 nM | EC50 ([1]; response plateau at 400 s, read-out: apparent EC50 of [Ca2+]i response): 62 ± 19 nM | [Ca2+]i Increase over Baseline ([2]; 5 nM Agouti): 74 ± 6 nM | [Ca2+]i Increase over Baseline ([2]; 25 nM Agouti): 46 ± 9 nM | antagonism of receptor activation [3]: did not antagonize | antagonism of receptor activation ([4]; 100 nM agouti): unaffected | antagonism of receptor activation ([4]; agouti 0.7 nM): did not antagonize
